The values that follow come from patent US20250144222A1, “Bifunctional Compounds Targeting the Cation-Independent Mannose 6- Phosphate Receptor” (NANOMEDSYN, priority 2022, published 2025).

Data set [1] addresses T1, b-CI-M6PR (UniProt P08169).
T1 construct: fused on or other part: Chemical biotin label (biotin N-hydroxysuccinimide) for streptavidin-peroxidase detection; no fused protein
The data set is described as follows: Competitive binding of biotinylated CI-M6PR to adsorbed pentamannose 6-phosphate. To be noted: competitive assay with pentamannose 6-phosphate ligand; read-out: Affinity for b-CI-M6PR (IC50) (converted). The protocol: Briefly, CI-M6PR, purified on a phosphomannane-sepharose affinity column, was biotinylated with biotin N-hydroxysuccinimide. […] The b-CI-M6PR bound to adsorbed PMP was then determined using streptavidin conjugated to the peroxidase and its substrate, o-phenylenediamine dihydrochloride (OPD), by optical density measurements. The 100% value corresponds to the concentration of b-CI-M6PR bound to PMP adsorbed in the absence of a competitor.

A short description of data set [2]: Pharmacokinetic profile in mice after single i.v. bolus. Conditions: single i.v. bolus 4 mg/kg, 21 days. Type of data set: in vivo, C57BL/6J mice. Here is the method: Mice were weighed before injection and throughout the experiment to monitor their health. Blood samples taken at 4 and 1, 2, 3, 7, 10, 14, 17 and 21 days post-injection were collected in tubes containing heparin and centrifuged at 3,000 g for 15 min, and the plasma was stored at −20° C. until measurement. Mice were sacrificed 21 days after injection.
The therapeutic antibody was detected using an HRP-conjugated anti-human IgG antibody specific for the Fc fragment, which was then quantified by a colorimetric assay with the OPD substrate and absorbance measure at 450 nm.

In general, IC50 refers to the point on the concentration scale where inhibition reaches its midpoint. `O=C[C@@H](O)[C@@H](O)[C@H](O)[C@H](O)COP(=O)(O)O` [M6P, mannose 6-phosphate]: the IC50 in data set [1] was 20 µM.

Consider adalimumab [mAb2, reference compound], for which the adverse clinical events result in data set [2] was “No adverse clinical events”.

In the case of infliximab [mAb1, reference compound], the adverse clinical events result in data set [2] is “No adverse clinical events”.
